Test results reported in patent publication US20220306768A1, “REDIRECTING DEATH-INDUCING SIGNAL COMPLEX (DISC) BY MODIFYING DEATH RECEPTOR AGONIST TO INDUCE CELL DEATH FOR CANCER TREATMENT” (CITY OF HOPE, priority 2021, published 2022).
“Also recorded” adds a separate entry of the source.

Tests used:
[1] = phase I studies (Herbst et al., 2010); cited from earlier work
OVCAR3 cells = experiment: Ovarian cancer xenograft model OVCAR3, implanted intraperitoneally; assay type: in vivo; conditions: intraperitoneal implant, preliminary data, FIG. 6
Method: (§1) In vivo testing was performed using ovarian cancer xenograft models, OVCAR3 and A2780, implanted intraperitoneally.

cancer cell lines = experiment: Cell death induction in cancer cell lines (Example 1); assay type: cell-based
Description: Redirecting TRAIL-induced signaling away from lysosomal degradation induced massive cell death and overcame TRAIL resistance. This was done by fusing bioactive protein transduction domains (PTD—or CPPs) and signaling peptides, such as TAT peptide from HIV TAT protein, NLS (nuclear localization signal), MTS (mitochondrial targeting sequence), with TRAIL to construct a series of new TRAILs, as shown in FIG. 7.

[2] = test system: NCI 60-cancer cell panel (60 different human cancer cell lines); experiment: NCI 60-cancer cell panel, cell death; assay type: cell-based
Method: TAT-TRAIL was tested in an NCI 60-cancer cell panel, which included 60 different human cancer cell lines set up by the National Cancer Institute for cancer therapeutics screening. Among the 60 cell lines of various cancer types, 33 were sensitive to parental TRAIL, but 27 were resistant.

Hep3B cell line = experiment: Cell viability in the Hep3B cell line (FIG. 9); assay type: cell-based; conditions: after 48 hours
A2780 cells = experiment: Ovarian cancer xenograft model A2780, implanted intraperitoneally; assay type: in vivo; conditions: intraperitoneal implant, preliminary data, FIG. 6
Method: as §1

[3] = test system: TRAIL-sensitive cancer cell lines; experiment: Caspase activity in cancer cell lines (FIG. 8); assay type: cell-based
Description: Of the 60 NCI cancer cell lines, 33 TRAIL-sensitive cells lines become more sensitive to TAT-TRAIL, while 17 of TRAIL-resistant cell lines become sensitive to TAT-TRAIL, only 10 cell lines remain resistant.

[4] = of the 60 NCI cancer cell lines
[5] = among the 60 cell lines of various cancer types

Molecule: recombinant human TRAIL: recombinant human tumor necrosis factor-related apoptosis-inducing ligand tested in clinical studies
- tolerability [1]: well tolerated

B1: TAT-TRAIL: fusion protein: TRAIL component fused to a 9-amino acid TAT peptide (RKKRRQRRR, SEQ ID NO:2); e.g. poly-His-TAT-hTRAIL94-281 (SEQ ID NO:3) (protein)
chain: HHHHHHRKKRRQRRRRTSEETISTVQEKQQNISPLVRERGPQRVAAHITGTRGRSNTLSSPNSKNEKALGRKINSWESSRSGHSFLSNLHLRNGELVIHEKGFYYIYSQTYFRFQEEIKENTKNDKQMVQYIYKYTSYPDPILLMKSARNSCWSKDAEYGLYSIYQGGIFELKENDRIFVSVTNEHLIDMDHEASFFGAFLVG
modifications: TAT-TRAIL
- antitumor effects (OVCAR3 cells): notable antitumor effects; also recorded: remarkable antitumor effects
- cell death in TRAIL-resistant cancer cells (cancer cell lines; TRAIL-resistant cancer cells): induced massive cell death in TRAIL-resistant cancer cells
- time to induce cell death (cancer cell lines; cancer cell lines): less than 1 hour
- potency in inducing cell death, cancer cells versus normal cells (cancer cell lines; cancer cells and normal cells): remarkable high potency in inducing cell death in cancer cells but not normal cells
- cell death in TRAIL-sensitive cell lines compared with His-tagged parental TRAIL construct ([2]; TRAIL-sensitive cell lines (33 of 60), FIG. 5): faster and massive cell death in all 33 TRAIL-sensitive cell lines
- increase of potency over parental TRAIL ([2]; cell lines resistant to parental TRAIL): up to a hundred times
- number of TRAIL-sensitive cell lines that become more sensitive [2, 4]: 33
- number of cell lines that remain resistant [2, 4]: 10
- number of TRAIL-resistant cell lines in which effective cell death was executed (become sensitive) ([2]; out of the 27 cell lines resistant to parental TRAIL): 17
- IC50 (cell viability) (Hep3B cell line): low
- potency as compared to the His-tagged parental TRAIL (Hep3B cell line): approximately sixty times greater potency
- antitumor effects (A2780 cells): notable antitumor effects; also recorded: remarkable antitumor effects
- caspase activity compared to control and His-tagged parental TRAIL [3]: higher caspase activity

B2: parental TRAIL: His-tagged parental TRAIL construct without TAT peptide, used as comparator (protein, UniProt P50591 39-281, looked up)
extracellular domain: TNELKQMQDKYSKSGIACFLKEDDSYWDPNDEESMNSPCWQVKWQLRQLVRKMILRTSEETISTVQEKQQNISPLVRERGPQRVAAHITGTRGRSNTLSSPNSKNEKALGRKINSWESSRSGHSFLSNLHLRNGELVIHEKGFYYIYSQTYFRFQEEIKENTKNDKQMVQYIYKYTSYPDPILLMKSARNSCWSKDAEYGLYSIYQGGIFELKENDRIFVSVTNEHLIDMDHEASFFGAFLVG
modifications: extracellular domain His tag
notes: His-tagged parental TRAIL construct without TAT peptide, used as comparator
- number of cell lines resistant to the agent [2, 5]: 27
- number of cell lines sensitive to the agent [2, 5]: 33
